Values quoted from earlier work as cited in paper PMC3957495.

Tests used:
CRF [1] = molecular target: CRF (UniProt P06850)
CRF [2] = molecular target: CRF (UniProt P06850); remark: listed apart in the source
Urocortin 1 = Urocortin 1 (UniProt P55089)
Chain of Urocortin 1 (P55089 83-122): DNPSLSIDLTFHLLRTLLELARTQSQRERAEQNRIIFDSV

Chain of CRF (P06850 154-194): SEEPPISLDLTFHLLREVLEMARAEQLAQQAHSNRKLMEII
Chain of sCRF2a receptor (Q60748 20-411): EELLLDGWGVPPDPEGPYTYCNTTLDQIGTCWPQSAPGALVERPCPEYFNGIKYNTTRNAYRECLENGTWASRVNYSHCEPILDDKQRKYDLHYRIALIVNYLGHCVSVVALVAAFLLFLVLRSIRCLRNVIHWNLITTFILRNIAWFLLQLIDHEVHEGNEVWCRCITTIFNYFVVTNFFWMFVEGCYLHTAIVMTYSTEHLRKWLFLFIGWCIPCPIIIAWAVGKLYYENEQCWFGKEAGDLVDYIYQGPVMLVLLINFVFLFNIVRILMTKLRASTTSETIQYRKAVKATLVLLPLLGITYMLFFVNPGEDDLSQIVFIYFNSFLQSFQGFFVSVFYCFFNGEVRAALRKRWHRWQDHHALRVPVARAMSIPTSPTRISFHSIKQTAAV
Chain of CRF2a-tr (P47866 20-411): as the sequence (Q60748 20-411) above, with V10E, T19S, V100I, A146T, I168V, I221V, A241P, V253I, M254I, A349S counted along it

Row | Substance | Kd (CRF [1]) | Ki (CRF [2]) | Ki (Urocortin 1)
1 | CRF2a-tr (from UniProt P47866) | 12.7 nM |  | 
2 | sCRF2a receptor (from UniProt Q60748) |  | 23 nM | 6.6 nM
